B1: BMP4: BMP protein; BMP signal transduction pathway activating substance (protein, UniProt P12644 293-408, looked up)
Bone morphogenetic protein 4: SPKHHSQRARKKNKNCRRHSLYVDFSDVGWNDWIVAPPGYQAFYCHGDCPFPLADHLNSTNHAIVQTLVNSVNSSIPKACCVPTELSAISMLYLDEYDKVVLKNYQEMVVEGCGCR

What was measured:
Assay type in all cases: cell-based
[1] = tested on: Human iPS cells (HC-6 #10 strain); assay: Cell mass from human iPS cells using BMP signal transduction pathway inhibiting substance (K02288) after addition of BMP4; bright field observation and immunostaining; conditions: K02288 300 nM added on day 3, 6 or 10; day 28
Method: Human iPS cells (HC-6 #10 strain, obtained from RIKEN) were cultured under feeder-free conditions according to the method described in Scientific Reports, 4, 3594 (2014). As the feeder-free medium, StemFit medium was used and, as the feeder-free scaffold, Laminin 511-E8 was used.
(§1) Specific maintenance culturing operation was performed in the same manner as in Example 1.
The thus-prepared subconfluent human iPS cells were washed with PBS, subjected to an enzyme treatment using Accumax, a serum-free medium for differentiation induction was added, and the cells were scraped from the surface of the culture dish by using a cell scraper and dispersed into single cells by pipetting. Thereafter, the aforementioned human ES cells dispersed into single cells were suspended in 100 μl of a serum-free medium at 9×10^3 cells per well of a non-cell-adhesive 96-well culture plate (PrimeSurface 96V-bottom plate, manufactured by SUMITOMO BAKELITE), and cultured in suspension under the conditions of 37° C., 5% CO2. […]

[2] = tested on: Human ES cells (KhES-1 strain); assay: Timing of addition of BMP4 in production of cell mass from human ES cells; bright field observation; conditions: for structure of cell mass (bright field): observed day 10
Method: (§2) Human ES cells (KhES-1 strain, obtained from Kyoto University) were cultured under feeder-free conditions according to the method described in Scientific Reports, 4, 3594 (2014). As the feeder-free medium, StemFit medium was used and, as the feeder-free scaffold, Laminin 511-E8 was used.
as §1
(§3) Thereafter, suspension culturing in a 96 well plate was started under conditions similar to those in Example 1.
The condition without addition of a BMP signal transduction pathway activating substance during the suspension culturing period was taken as the control (-BMP4 condition, FIG. 3A). Thereafter, in the condition with the addition of a BMP signal transduction pathway activating substance on days 1, 2 or 3 from the start of suspension culturing (Day1-3+BMP4 condition, FIGS. 3B-D), a serum-free medium not containing Y27632 and containing IWP-2, SB-431542, BMP4 was added at 100 μl per well. BMP4 was added at 3 nM to the medium so that the final concentration in the well would be 1.5 nM. […] On day 10 from the start of suspension culturing, bright field observation was performed using an inverted microscope (manufactured by KEYENCE CORPORATION, BIOREVO) (FIGS. 3A-D).

[3] = tested on: Human ES cells (KhES-1 strain); assay: Addition concentration of BMP4 in production of cell mass containing pituitary tissue; bright field observation; conditions: 0.5 nM, 1.5 nM or 5 nM BMP4 added once on day 2; day 28
Method: as §2, §1, §3
A serum-free medium not containing Y27632 and containing IWP-2, SB-431542, BMP4, and SAG was added at 100 μl per well on day 2 from the start of suspension culturing. In this case, the amount of BMP4 to be added was under 4 conditions of 0.5 nM, 1.5 nM, 5 nM and no addition control. BMP4 was added at twice the concentration set for the medium so that the final concentration set for the well could be achieved. SAG was added at 4 μM to the medium so that the final concentration in the well would be 2 μM.
A half amount of the medium was changed with a serum-free medium not containing Y27632 or BMP4 and containing IWP-2, SB-431542 and SAG on days 6, 10, 13, 17, 21 and 24 from the start of suspension culturing.
Bright field observation was performed under an inverted microscope on day 28 from the start of suspension culturing (FIGS. 8A-D).

Molecule	cell mass formation (bright field) [1]	effective timing of addition from start of suspension culturing for formation of cell mass coated with nonneural epithelial tissue ([2]; BMP4 1.5 nM) [h]	structure of cell mass (bright field) ([2]; BMP4 1.5 nM added on day 1 or day 2)	structure of cell mass (bright field) ([2]; BMP4 1.5 nM added on day 3 (and day 6))	size of embryoid body ([2]; BMP4 added on day 2 compared with day 1, day 10)	nonneural epithelial structure on surface of cell mass [3]
COc1cc(-c2cc(-c3cccc(O)c3)cnc2N)cc(OC)c1OC [K02288, 3-[6-amino-5-(3,4,5-trimethoxyphenyl)-3-pyridinyl]-phenol]	a cell mass in which nonneural epithelial tissue surrounds neural tissue of the center part was formed					
B1		≤ 72	cell masses containing neural tissue and nonneural epithelial tissue and having a two-layer structure in which a center part with a neuroepithelium-like structure is covered with a nonneural epithelium-like layer were formed	outer nonneural epithelium-like tissue was not formed	larger than the embryoid body obtained under the condition with the addition of BMP4 on day 1	a nonneural epithelial structure was formed on the surface of the cell mass
